Sequences and labels used below:
B1: Ankyrin-2, residues 3571 to 3650; numbered along this chain, Q01484 (parent)
chain: ERLAYIADHLGFSWTELARELDFTEEQIHQIRIENPNSLQDQSHALLKYWLERDGKHATDTNLVECLTKINRMDIVHLME

± gives the uncertainty stated by the source.

Variants of B1 are the subject of the data set. Description: abundance fitness (aPCA) (normalised: wild type 0, dead -1); higher = more abundant; growth selection in yeast, the domain comes from the species named. As to conditions: Homo sapiens.
Turning to ERLAYIADHQGFSWTELARELDFTEEQIHQIRIENPNSLQDQSHALLKYWLERDGKHATDTNLVECLTKINRMDIVHLME, the abundance fitness is -0.791 ± 0.28.
Then ERLAYIADHLGFSWTELARELDFTEEQIHQIRIENPNSLQDQSHALLKYWLERCGKHATDTNLVECLTKINRMDIVHLME, with -0.134 ± 0.15.
Then ERLAYIADHLGFSWTELARELDFTEEQIFQIRIENPNSLQDQSHALLKYWLERDGKHATDTNLVECLTKINRMDIVHLME, with 0.062 ± 0.25.
Then ERLAYIADHLGFSWTELARELDFTEEQIQQIRIENPNSLQDQSHALLKYWLERDGKHATDTNLVECLTKINRMDIVHLME, with -0.025 ± 0.097.
On to ERLAYIADHLGFSWTELARELDFTEEQIHQIRIENPNSLQDQSHALLKYWGERDGKHATDTNLVECLTKINRMDIVHLME, for which the abundance fitness was -0.154 ± 0.13.
ERLAYIADHLGFSWTELARELDFTCEQIHQIRIENPNSLQDQSHALLKYWLERDGKHATDTNLVECLTKINRMDIVHLME: the abundance fitness was -0.22 ± 0.14.
Then ERLAYIADHLGFSHTELARELDFTEEQIHQIRIENPNSLQDQSHALLKYWLERDGKHATDTNLVECLTKINRMDIVHLME, with -0.842 ± 0.43; and ERLAYIADHLGFSKTELARELDFTEEQIHQIRIENPNSLQDQSHALLKYWLERDGKHATDTNLVECLTKINRMDIVHLME, with -1 ± 0.41; and ERLAHIADHLGFSWTELARELDFTEEQIHQIRIENPNSLQDQSHALLKYWLERDGKHATDTNLVECLTKINRMDIVHLME, with 0.013 ± 0.28.
As to ERLAYIADHLGFSWTELARELDFTEEQIHQIRIENPNSLQDQSHALLKYWLERDGKHATDINLVECLTKINRMDIVHLME, the abundance fitness was determined as 0.027 ± 0.24.
Then ERLAYIADHLGFSWTELARELDFTEEQIHQIRIENPNSLQDQSHALLKYWLERDGKHATDTNLVECLTKENRMDIVHLME, with -0.305 ± 0.12; and ERLAYIADHLGFSWTELARELDFTEEQIHQIRIENPNSLQDQSHALLHYWLERDGKHATDTNLVECLTKINRMDIVHLME, with -0.015 ± 0.12; and ERLAYIADHLGFSWTELARELTFTEEQIHQIRIENPNSLQDQSHALLKYWLERDGKHATDTNLVECLTKINRMDIVHLME, with -0.048 ± 0.12.
Then ERLAYIADHLGFSWTELARELAFTEEQIHQIRIENPNSLQDQSHALLKYWLERDGKHATDTNLVECLTKINRMDIVHLME, with -0.05 ± 0.066; and ERLAYIADHLGFSWTELARELDFTEEQIHQIRIWNPNSLQDQSHALLKYWLERDGKHATDTNLVECLTKINRMDIVHLME, with -0.022 ± 0.33; and ERLAYIADHLGFSWTELARELDFTEEQIHQIRIENPNSLQDQSHALLKYWLERDGKHATDTNLEECLTKINRMDIVHLME, with 0.079 ± 0.12.
Then ERLAYIADHLGFSWTELARELDFTEEQIHQIRIENPNSLQDQSHALLKYWLERDGKHATDTNLWECLTKINRMDIVHLME, with -0.165 ± 0.14; and ERLAYIADHLGFSWTELARELDFTEEQIHQIRIENPNSLQDQSHALLKYWLERDGKHATDTNLRECLTKINRMDIVHLME, with 0.01 ± 0.076; and ERLAYIADHLGFSWTELARELDFTEEQIHQIRIENPNSLQDQSHALLKYWLERDGKHATDTNLCECLTKINRMDIVHLME, with -0.134 ± 0.096.
In the case of ERLAYIADHLGFSWTELARELDFTEEQIHQIRIENPNSLDDQSHALLKYWLERDGKHATDTNLVECLTKINRMDIVHLME, the abundance fitness is 0.117 ± 0.25.
Take ERLAYIADHLGFSWTELARELDFTEEQIHQIRIENPYSLQDQSHALLKYWLERDGKHATDTNLVECLTKINRMDIVHLME: the abundance fitness was -0.171 ± 0.15.
Then ERLAYIADHLGFSWTELARELDFTEEQIHQIRIENPNSLQDQSHALLKYWLERDGKHVTDTNLVECLTKINRMDIVHLME, with -0.018 ± 0.052.
For the variant ERLAYIADHLGFSWTELARELDFTEEQIHQIRIENPNSLQDQSHALLKYWLERDGKHLTDTNLVECLTKINRMDIVHLME, the abundance fitness came out at 0.041 ± 0.061.
Regarding ERLAYIADHLGFSWTELARELDFTEEQIHQIRIENPNSLQDQSHALLKYWLERDGKHATDTNLVECLTPINRMDIVHLME, the abundance fitness is -0.545 ± 0.038.
With ERLAYIADHLGFSWTELARELDFTEEQIHQIRIENPNSLQDQSHALLKYWLERDGEHATDTNLVECLTKINRMDIVHLME, the abundance fitness came to 0.149 ± 0.12.
With ERLAYIADHLGFSWTELARELDFTEEQIHQRRIENPNSLQDQSHALLKYWLERDGKHATDTNLVECLTKINRMDIVHLME, the abundance fitness is -1.04 ± 0.12.
Then ERLAYIADHLGFSWRELARELDFTEEQIHQIRIENPNSLQDQSHALLKYWLERDGKHATDTNLVECLTKINRMDIVHLME, with -0.057 ± 0.059; and ERLAYIADHLGFSWPELARELDFTEEQIHQIRIENPNSLQDQSHALLKYWLERDGKHATDTNLVECLTKINRMDIVHLME, with 0.01 ± 0.063.
ERLAYIADHLGFSWQELARELDFTEEQIHQIRIENPNSLQDQSHALLKYWLERDGKHATDTNLVECLTKINRMDIVHLME: the abundance fitness is -0.083 ± 0.15.
Then ERLAYIADHLGFSWTELAWELDFTEEQIHQIRIENPNSLQDQSHALLKYWLERDGKHATDTNLVECLTKINRMDIVHLME, with 0.001 ± 0.075; and ERLAYIADHLGFSWTELLRELDFTEEQIHQIRIENPNSLQDQSHALLKYWLERDGKHATDTNLVECLTKINRMDIVHLME, with -1.03 ± 0.16; and ERLAYIADHLGFSWTELRRELDFTEEQIHQIRIENPNSLQDQSHALLKYWLERDGKHATDTNLVECLTKINRMDIVHLME, with -1.37 ± 0.3.
For ERLAYIADHLGFSWTELDRELDFTEEQIHQIRIENPNSLQDQSHALLKYWLERDGKHATDTNLVECLTKINRMDIVHLME, the abundance fitness is -0.514 ± 0.38.
Regarding ERLAYIADHLGFSWTELARELDFTEEQIHQIRIENPNQLQDQSHALLKYWLERDGKHATDTNLVECLTKINRMDIVHLME, the abundance fitness was -0.103 ± 0.078.

The values are drawn from the Human Domainome abundance scans (Beltran et al. 2025).
